Values of other authors, collected in article PMC7228847.
pKd: −log10 of the molar value.

Molecular target: SEMA6A ECD (Mus musculus) (UniProt O35464)
Sequence (O35464 19-649): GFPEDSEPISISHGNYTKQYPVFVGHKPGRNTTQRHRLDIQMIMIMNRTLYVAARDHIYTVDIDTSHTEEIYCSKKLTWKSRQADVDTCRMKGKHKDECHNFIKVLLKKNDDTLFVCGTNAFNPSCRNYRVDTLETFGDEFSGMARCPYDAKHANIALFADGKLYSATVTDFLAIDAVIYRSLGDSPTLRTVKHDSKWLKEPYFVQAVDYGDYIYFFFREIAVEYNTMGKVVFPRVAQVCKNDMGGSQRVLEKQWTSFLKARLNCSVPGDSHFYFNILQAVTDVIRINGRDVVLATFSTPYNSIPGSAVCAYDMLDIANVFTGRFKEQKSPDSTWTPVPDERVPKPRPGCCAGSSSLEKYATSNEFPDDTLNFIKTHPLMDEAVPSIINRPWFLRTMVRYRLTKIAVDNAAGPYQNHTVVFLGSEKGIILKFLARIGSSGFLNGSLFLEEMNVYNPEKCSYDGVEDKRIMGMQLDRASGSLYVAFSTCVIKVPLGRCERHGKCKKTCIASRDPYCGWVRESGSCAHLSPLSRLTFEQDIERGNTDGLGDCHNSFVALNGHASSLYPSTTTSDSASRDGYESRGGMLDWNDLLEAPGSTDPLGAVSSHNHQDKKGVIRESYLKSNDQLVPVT

Chain of PlexinA2 (P70207 35-1237): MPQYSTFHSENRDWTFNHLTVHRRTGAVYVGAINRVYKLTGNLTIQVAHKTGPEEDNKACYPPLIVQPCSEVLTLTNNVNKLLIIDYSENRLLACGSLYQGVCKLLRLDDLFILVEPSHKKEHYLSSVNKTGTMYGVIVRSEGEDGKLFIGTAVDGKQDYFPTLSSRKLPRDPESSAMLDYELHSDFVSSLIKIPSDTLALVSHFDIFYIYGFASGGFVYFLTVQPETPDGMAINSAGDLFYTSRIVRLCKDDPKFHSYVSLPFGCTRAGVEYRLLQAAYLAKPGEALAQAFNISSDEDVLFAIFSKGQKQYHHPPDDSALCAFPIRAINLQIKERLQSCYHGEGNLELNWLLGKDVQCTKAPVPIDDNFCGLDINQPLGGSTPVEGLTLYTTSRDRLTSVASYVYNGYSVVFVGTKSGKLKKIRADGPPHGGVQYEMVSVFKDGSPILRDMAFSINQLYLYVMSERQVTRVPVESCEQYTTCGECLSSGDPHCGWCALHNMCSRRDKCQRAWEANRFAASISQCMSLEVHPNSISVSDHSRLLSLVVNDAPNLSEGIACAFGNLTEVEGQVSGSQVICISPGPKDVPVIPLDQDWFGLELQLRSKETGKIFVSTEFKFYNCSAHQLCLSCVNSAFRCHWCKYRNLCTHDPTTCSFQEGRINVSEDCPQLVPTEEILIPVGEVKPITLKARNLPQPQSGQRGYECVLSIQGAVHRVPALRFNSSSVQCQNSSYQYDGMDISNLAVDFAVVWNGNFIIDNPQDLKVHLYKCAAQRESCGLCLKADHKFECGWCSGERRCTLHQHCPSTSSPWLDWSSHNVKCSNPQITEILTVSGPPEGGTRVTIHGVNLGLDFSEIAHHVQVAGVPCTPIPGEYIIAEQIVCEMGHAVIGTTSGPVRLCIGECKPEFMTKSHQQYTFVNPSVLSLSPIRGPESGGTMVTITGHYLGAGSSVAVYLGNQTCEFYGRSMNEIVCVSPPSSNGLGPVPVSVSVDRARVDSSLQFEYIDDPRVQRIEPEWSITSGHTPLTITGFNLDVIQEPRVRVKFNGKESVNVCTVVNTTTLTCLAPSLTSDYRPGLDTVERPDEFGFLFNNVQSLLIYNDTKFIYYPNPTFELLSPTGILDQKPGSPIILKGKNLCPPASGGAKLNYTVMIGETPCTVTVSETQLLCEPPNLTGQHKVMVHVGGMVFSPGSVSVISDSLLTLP

In the case of PlexinA2 (from UniProt P70207), the pKd is given as 5.64.
